Source: US20230398228A1, “ERIBULIN-BASED ANTIBODY-DRUG CONJUGATES AND METHODS OF USE” (EISAI R&D MANAGEMENT CO., LTD., priority 2016, published 2023)
Values joined by “and” are separate entries in the source; they are usually repeats but may differ in a detail not shown here. Identical values can stand only once.

Tests used:
[1] = Maximum tolerated dose of MORAb-202 in CD-1 mice; type: in vivo, mouse
Protocol: Body weight was measured prior to dose on the dosing day, 24 hours post dose, and three times a week thereafter. […] Two weeks after dosing, the terminal body weight was measured and recorded. Euthanized mice at the end of the study (and if any mouse euthanized or found dead during the study) were processed for necropsy. Organs were examined for signs of tissue damage.

[2] = tested on: LXFA-737 NSCLC patient-derived xenograft; assay: NSCLC PDx model LXFA-737; type: in vivo, mouse; details: for Tumor Growth Inhibition: vehicle = 100
Description: Tumor implantation: NSCLC tumor fragments were obtained from LXFA-737 tumor xenografts serially passaged in nude mice. After removal from donor mice, tumors were cut into fragments (3-4 mm edge length) and placed in phosphate-buffered saline (PBS) containing 10% penicillin/streptomycin. Recipient animals were anesthetized by inhalation of isoflurane and received unilateral or bilateral tumor implants subcutaneously in the flank. Tumor xenografts were implanted with one or two tumors per mouse at a take rate <65%. In the case of a bilateral take, one of these tumors was explanted prior to randomization. Animals and tumor implants were monitored daily until solid tumor growth was detectable in a sufficient number of animals. At randomization, the volume of growing tumors was determined. […] Animals not used for experiments were euthanized.
Body weight was measured prior to dose on each dosing day, and two times per week during the study. At the end of the study, the terminal body weight was measured and recorded.

[3] = tested on: OD-BRE-0631 TNBC patient-derived xenograft; details: 5 mg/kg single dose, five days post-treatment
[4] = tested on: Endo-10590 endometrial cancer patient-derived xenograft; assay: Endometrial cancer PDx model Endo-10590
Protocol: Tumor fragments were implanted subcutaneously into the left flank of 40 NMRI nu/nu female mice, and tumor volume was monitored. Mice with a tumor volume of 100-160 mm^3 were randomized into one of four groups (Groups A-D, Table 39). […] Each group consisted of 8 animals. The day of randomization was designated as Day 0 of the experiment.
Tumor growth was evaluated by the measurement of two perpendicular diameters twice weekly, and tumor volume (TV), relative tumor volume (RTV) and treated/control (T/C) values were calculated. Body weight was also evaluated twice weekly as a parameter for toxicity, with the calculation of the body weight per group and body weight changes (BWC) relative to the start of treatment. Animals were sacrificed when the individual tumor volume exceeded 1 cm^3, or at the end of the study.

[5] = 5 mg/kg single dose i.v., Day 21, n = 6
[6] = 5 mg/kg single dose i.v., Day 32, n = 6
[7] = 5 mg/kg single dose i.v., Day 74, n = 6

Substance: MORAb-003-maleimido-PEG2-Val-Cit-pAB-eribulin [MORAb-202]
- Body weight of individual mice ([1]; 40 mg/kg single bolus i.v., CD-1 mice, day 4 post Rx): 24.40 g and 24.10 g and 22.70 g
- Body weight, group mean ([1]; 40 mg/kg single bolus i.v., CD-1 mice, day 4 post injections): 23.7 g
- Body weight of individual mice ([1]; 40 mg/kg single bolus i.v., CD-1 mice, day 7 post Rx): 25.10 g and 25.50 g and 23.40 g
- Body weight, group mean ([1]; 40 mg/kg single bolus i.v., CD-1 mice, day 7 post injections): 24.7 g
- Body weight of individual mice ([1]; 40 mg/kg single bolus i.v., CD-1 mice, day 9 post Rx): 25.80 g and 25.20 g and 23.70 g
- Body weight, group mean ([1]; 40 mg/kg single bolus i.v., CD-1 mice, day 9 post injections): 24.9 g
- Body weight of individual mice ([1]; 40 mg/kg single bolus i.v., CD-1 mice, day 11 post Rx): 25.30 g and 25.00 g and 23.80 g
- Body weight, group mean ([1]; 40 mg/kg single bolus i.v., CD-1 mice, day 11 post injections): 24.7 g
- Body weight of individual mice ([1]; 40 mg/kg single bolus i.v., CD-1 mice, day 14 post Rx): 25.70 g and 25.30 g and 26.30 g
- Body weight, group mean ([1]; 40 mg/kg single bolus i.v., CD-1 mice, day 14 post injections): 25.8 g
- Body weight of individual mice ([1]; 80 mg/kg single bolus i.v., CD-1 mice, day 0 post Rx): 21.80 g and 26.50 g and 25.80 g
- Body weight, group mean ([1]; 80 mg/kg single bolus i.v., CD-1 mice, day 0 post injections): 24.7 g
- Body weight of individual mice ([1]; 80 mg/kg single bolus i.v., CD-1 mice, day 1 post Rx): 23.10 g and 27.80 g (2×)
- Body weight, group mean ([1]; 80 mg/kg single bolus i.v., CD-1 mice, day 1 post injections): 26.2 g
- Body weight of individual mice ([1]; 80 mg/kg single bolus i.v., CD-1 mice, day 2 post Rx): 23.30 g and 28.30 g (2×)
- Body weight, group mean ([1]; 80 mg/kg single bolus i.v., CD-1 mice, day 2 post injections): 26.6 g
- Body weight of individual mice ([1]; 80 mg/kg single bolus i.v., CD-1 mice, day 4 post Rx): 23.50 g and 29.50 g and 28.60 g
- Body weight, group mean ([1]; 80 mg/kg single bolus i.v., CD-1 mice, day 4 post injections): 27.2 g
- Body weight of individual mice ([1]; 80 mg/kg single bolus i.v., CD-1 mice, day 7 post Rx): 23.30 g and 30.40 g and 30.10 g
- Body weight, group mean ([1]; 80 mg/kg single bolus i.v., CD-1 mice, day 7 post injections): 27.9 g
- Body weight of individual mice ([1]; 80 mg/kg single bolus i.v., CD-1 mice, day 9 post Rx): 23.60 g and 31.00 g and 30.20 g
- Body weight, group mean ([1]; 80 mg/kg single bolus i.v., CD-1 mice, day 9 post injections): 28.3 g
- Body weight of individual mice ([1]; 80 mg/kg single bolus i.v., CD-1 mice, day 11 post Rx): 23.10 g and 29.10 g and 29.40 g
- Body weight, group mean ([1]; 80 mg/kg single bolus i.v., CD-1 mice, day 11 post injections): 27.2 g
- Body weight of individual mice ([1]; 80 mg/kg single bolus i.v., CD-1 mice, day 14 post Rx): 21.70 g and 28.40 g and 28.90 g
- Body weight, group mean ([1]; 80 mg/kg single bolus i.v., CD-1 mice, day 14 post injections): 26.3 g
- toxicity, in words ([1]; doses up to 80 mg/kg via bolus intravenous administration): no toxicity
- maximum tolerated dose (MTD) ([1]; single bolus intravenous dose, CD-1 mice): above 80 mg/kg
- body weight loss compared with PBS control, in words ([1]; single i.v. dose 10, 20, 40 or 80 mg/kg): No significant body weight loss
- body weight loss versus vehicle, in words ([2]; 5 mg/kg single dose): no significant body weight loss
- Tumor Volume [2, 5]: 22.9 mm^3
- Tumor Growth Inhibition [2, 5]: (2.3) %
- Tumor Volume [2, 6]: 4.7 mm^3
- Tumor Growth Inhibition [2, 6]: (0.3) %
- Tumor Volume [2, 7]: 418.3 mm^3
- tumor-free mice [2, 7]: (4/6 tumor-free)
- mice considered tumor-free at Day 32 ([2]; 5 mg/kg single dose, six mice): Five of the six
- mice that remained tumor-free through Day 74 ([2]; 5 mg/kg single dose, six mice): four
- anti-tumor activity, in words ([2]; 5 mg/kg single i.v. dose): significant tumor regression
- cancer associated fibroblast structure by anti-α-SMA-FITC IHC, in words [3]: diminish the structure of cancer associated fibroblasts
- tumor cell occupation by IHC with anti-human IgG antibody, in words [3]: occupies folate receptor alpha-expressing tumor cells
- tumor re-growth during the study, in words ([4]; MORAb-202 5 mg/kg or eribulin 3.2 mg/kg): no significant tumor re-growth
- anti-tumor activity, in words ([4]; MORAb-202 5 mg/kg or eribulin 3.2 mg/kg, single i.v. dose): significant anti-tumor activity
- effect on body weight, in words ([4]; first week post-treatment): no body weight loss
